Laboratory results taken from the supplement of paper PMC7125110.
± gives the standard error. For part of these data: Fewer inactive variants are shown than the library holds.

B1: glmS ribozyme (parent)
chain: AUAAAAGCGCCAGAACUACAGAAAUGUAGUUGACGAGGAGGAGGUUUAUCGAAUUUUCGGCGGAUGCCUCCAAA

Assays:
Details in all cases: with glucosamine-6-phosphate
glucosamine-6-phosphate [1] = variants of: B1; assay: kcat; higher = faster cleavage; RNA array
In short: (§1)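 Barcoded ribozyme variants were transcribed in situ on sequenced MiSeq chips by E. coli RNA polymerase. At 37 °C, a hybridised Cy3 probe tracked them while glucosamine-6-phosphate (40 μM to 10 mM) in HEPES/KCl/Mg(OAc)2 buffer flowed in and tiles were imaged over ~14 h. Per-tile medians of signals normalised to baseline and to non-cleaving reference variants were fit to one- or two-exponential decays, giving kobs. kcat and KM came from weighted Michaelis–Menten fits across concentrations.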

glucosamine-6-phosphate [2] = variants of: B1; assay: self-cleavage kobs at 40 uM GlcN6P; higher = faster cleavage; RNA array
In short: as §1

glucosamine-6-phosphate [3] = variants of: B1; assay: self-cleavage kobs at 2500 uM GlcN6P; higher = faster cleavage; RNA array
In short: as §1

glucosamine-6-phosphate [4] = variants of: B1; assay: self-cleavage kobs at 10000 uM GlcN6P; higher = faster cleavage; RNA array
In short: as §1

glucosamine-6-phosphate [5] = variants of: B1; assay: self-cleavage kobs at 160 uM GlcN6P; higher = faster cleavage; RNA array
In short: as §1

glucosamine-6-phosphate [6] = variants of: B1; assay: self-cleavage kobs at 640 uM GlcN6P; higher = faster cleavage; RNA array
In short: as §1

glucosamine-6-phosphate [7] = variants of: B1; assay: KM; higher = weaker cofactor use; RNA array
In short: as §1

Question: AUAAAAGCGCCAGAACUACAGAAAUGUAAUUGACGAGGAGGAGGUUUAUCGAAUUUUCGGCGCAUGCCUCCAAA [G29A G63C] was tested. Which kcat (glucosamine-6-phosphate [1]) did it give?
Answer: < 1e-05 s⁻¹

Question: And the “self-cleavage kobs at 40 uM GlcN6P” value (glucosamine-6-phosphate [2])?
Answer: < 1e-05 s⁻¹

Question: What about the “self-cleavage kobs at 2500 uM GlcN6P” value (glucosamine-6-phosphate [3]) of the same variant?
Answer: < 1e-05 s⁻¹

Question: And the “self-cleavage kobs at 10000 uM GlcN6P” value (glucosamine-6-phosphate [4])?
Answer: < 1e-05 s⁻¹

Question: AUAAAAGCGCCAGAACUACAGAAAUGUAAUUGACGAGGAGGAGGUUUAUCGAAUUAUCGGCGGAUGCCUCCAAA [G29A U56A] was tested. Which kcat (glucosamine-6-phosphate [1]) did it give?
Answer: 0.00321 ± 0.0012 s⁻¹

Question: What about the “self-cleavage kobs at 40 uM GlcN6P” value (glucosamine-6-phosphate [2]) of the same variant?
Answer: 4.94e-05 ± 9.7e-06 s⁻¹

Question: What about the “self-cleavage kobs at 160 uM GlcN6P” value (glucosamine-6-phosphate [5]) of the same variant?
Answer: 0.000108 ± 2.2e-05 s⁻¹

Question: What about the “self-cleavage kobs at 640 uM GlcN6P” value (glucosamine-6-phosphate [6]) of the same variant?
Answer: 0.000389 ± 7.9e-05 s⁻¹

Question: And the “self-cleavage kobs at 2500 uM GlcN6P” value (glucosamine-6-phosphate [3])?
Answer: 0.000941 ± 0.00015 s⁻¹

Question: What about the “self-cleavage kobs at 10000 uM GlcN6P” value (glucosamine-6-phosphate [4]) of the same variant?
Answer: 0.00255 ± 0.00036 s⁻¹

Question: Which kcat (glucosamine-6-phosphate [1]) does the source give for AUAAAAGCGCCAGAACUACAGAAAUGUAACUGACGAGGAGGAGGUUUAUCGAAUUUUCGGCGGAUGCCUCCAAA [G29A U30C] here?
Answer: 3.24e-05 ± 8.4e-06 s⁻¹

Question: What about the “self-cleavage kobs at 2500 uM GlcN6P” value (glucosamine-6-phosphate [3]) of the same variant?
Answer: 4.91e-05 ± 1.5e-05 s⁻¹

Question: And the “self-cleavage kobs at 10000 uM GlcN6P” value (glucosamine-6-phosphate [4])?
Answer: 2.58e-05 ± 1e-05 s⁻¹

Question: What does the source list for AUAAAAGCGCCAGAACUACAGAAAUGUAAAUGACGAGGAGGAGGUUUAUCGAAUUUUCGGCGGAUGCCUCCAAA [G29A U30A]?
Answer: kcat (glucosamine-6-phosphate [1]): 0.00133 ± 0.00052 s⁻¹; self-cleavage kobs at 40 uM GlcN6P (glucosamine-6-phosphate [2]): 2.98e-05 ± 1.5e-05 s⁻¹; self-cleavage kobs at 160 uM GlcN6P (glucosamine-6-phosphate [5]): 5.7e-05 ± 2e-05 s⁻¹; self-cleavage kobs at 640 uM GlcN6P (glucosamine-6-phosphate [6]): 0.000149 ± 2.4e-05 s⁻¹; self-cleavage kobs at 2500 uM GlcN6P (glucosamine-6-phosphate [3]): 0.000752 ± 0.00014 s⁻¹; self-cleavage kobs at 10000 uM GlcN6P (glucosamine-6-phosphate [4]): 0.000862 ± 0.00016 s⁻¹

Question: AUAAAAGCGCCAGAACUACAGAAAUGUAAUUGACGAGGAGGAGGUUUAUCGAAUUUUCGGCGGAUGACUCCAAA [G29A C67A] was tested. Which kcat (glucosamine-6-phosphate [1]) did it give?
Answer: 0.00104 ± 0.00036 s⁻¹

Question: What about the “self-cleavage kobs at 40 uM GlcN6P” value (glucosamine-6-phosphate [2]) of the same variant?
Answer: 2.96e-05 ± 8.8e-06 s⁻¹

Question: And the “self-cleavage kobs at 160 uM GlcN6P” value (glucosamine-6-phosphate [5])?
Answer: 0.000165 ± 3.2e-05 s⁻¹

Question: What about the “self-cleavage kobs at 640 uM GlcN6P” value (glucosamine-6-phosphate [6]) of the same variant?
Answer: 0.000205 ± 3.9e-05 s⁻¹

Question: And the “self-cleavage kobs at 2500 uM GlcN6P” value (glucosamine-6-phosphate [3])?
Answer: 0.0005 ± 9.3e-05 s⁻¹

Question: And the “self-cleavage kobs at 10000 uM GlcN6P” value (glucosamine-6-phosphate [4])?
Answer: 0.00099 ± 0.00013 s⁻¹

Question: AUAAAAGCGCCAGAACUACAGAAAUGUACUUGACGAGGGGGAGGUUUAUCGAAUUUUCGGCGGAUGCCUCCAAA [G29C A39G] was tested. Which kcat (glucosamine-6-phosphate [1]) did it give?
Answer: 0.00594 ± 0.0022 s⁻¹

Question: What about the “self-cleavage kobs at 40 uM GlcN6P” value (glucosamine-6-phosphate [2]) of the same variant?
Answer: 0.000107 ± 1.2e-05 s⁻¹

Question: And the “self-cleavage kobs at 160 uM GlcN6P” value (glucosamine-6-phosphate [5])?
Answer: 0.000305 ± 6.8e-05 s⁻¹

Question: What about the “self-cleavage kobs at 640 uM GlcN6P” value (glucosamine-6-phosphate [6]) of the same variant?
Answer: 0.000768 ± 0.00012 s⁻¹

Question: And the “self-cleavage kobs at 2500 uM GlcN6P” value (glucosamine-6-phosphate [3])?
Answer: 0.00223 ± 0.00037 s⁻¹

Question: What about the “self-cleavage kobs at 10000 uM GlcN6P” value (glucosamine-6-phosphate [4]) of the same variant?
Answer: 0.00525 ± 0.00064 s⁻¹

Question: Which kcat (glucosamine-6-phosphate [1]) does the source give for AUAAAAGCGCCAGAACUACAGAAAUGUAAUUGACGAGGAGCAGGUUUAUCGAAUUUUCGGCGGAUGCCUCCAAA [G29A G41C] here?
Answer: 3.14e-05 ± 5.6e-06 s⁻¹

Question: And the “self-cleavage kobs at 2500 uM GlcN6P” value (glucosamine-6-phosphate [3])?
Answer: 2.97e-05 ± 1.2e-05 s⁻¹

Question: What does the source list for AUAAAAGCGCCAGAACUACAGAAAUGUAAUUGACGAGGAGGAGGUCUAUCGAAUUUUCGGCGGAUGCCUCCAAA [G29A U46C]?
Answer: kcat (glucosamine-6-phosphate [1]): 0.00025 ± 1.1e-05 s⁻¹; KM (glucosamine-6-phosphate [7]): 1880 ± 160 µM; self-cleavage kobs at 640 uM GlcN6P (glucosamine-6-phosphate [6]): 6.39e-05 ± 2e-05 s⁻¹; self-cleavage kobs at 2500 uM GlcN6P (glucosamine-6-phosphate [3]): 0.000139 ± 3.1e-05 s⁻¹; self-cleavage kobs at 10000 uM GlcN6P (glucosamine-6-phosphate [4]): 0.000216 ± 6.1e-05 s⁻¹

Question: AUAAAAGCGCCAGAACUACAGAAAUGUAAUUGACGAGGAGGAGGUUUAUCGAAUUUUCGGCGGAUGCCUCGAAA [G29A C71G] was tested. Which kcat (glucosamine-6-phosphate [1]) did it give?
Answer: 0.00019 ± 3.4e-05 s⁻¹

Question: What about the “self-cleavage kobs at 640 uM GlcN6P” value (glucosamine-6-phosphate [6]) of the same variant?
Answer: 9.26e-05 ± 2.3e-05 s⁻¹

Question: And the “self-cleavage kobs at 2500 uM GlcN6P” value (glucosamine-6-phosphate [3])?
Answer: 0.000117 ± 2.3e-05 s⁻¹

Question: What about the “self-cleavage kobs at 10000 uM GlcN6P” value (glucosamine-6-phosphate [4]) of the same variant?
Answer: 0.000204 ± 3.3e-05 s⁻¹
